In patent US20230257479A1 (Genmab, published 2023):

Columns and labels:
[1] = target: T1, human 5T4ECDHis (mature protein of SEQ ID NO: 99) (human, UniProt Q13641 32-355); assay: BLI cross-block; competitor (immobilised): IgG1-5T4-106-FEAR
T1 construct: ECD of human 5T4 (aa 1-355 of Uniprot Q13641) with C-terminal His tag; residues 1-31 are the signal peptide; also called ECD of human 5T4 with a C-terminal His tag
T1 sequence: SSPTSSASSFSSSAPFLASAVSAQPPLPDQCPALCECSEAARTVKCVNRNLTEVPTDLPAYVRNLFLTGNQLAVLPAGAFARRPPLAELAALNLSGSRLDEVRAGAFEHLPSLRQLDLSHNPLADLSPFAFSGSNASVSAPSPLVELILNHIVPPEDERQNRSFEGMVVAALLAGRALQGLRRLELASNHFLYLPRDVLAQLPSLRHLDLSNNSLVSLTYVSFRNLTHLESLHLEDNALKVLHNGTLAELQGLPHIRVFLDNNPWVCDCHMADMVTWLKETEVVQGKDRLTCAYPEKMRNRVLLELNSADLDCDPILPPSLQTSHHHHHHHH

[2] = target: T1, human 5T4ECDHis (mature protein of SEQ …); assay: BLI cross-block; competitor (immobilised): IgG1-5T4-A1-F405L
[3] = target: T1, human 5T4ECDHis (mature protein of SEQ …); assay: BLI cross-block; competitor (immobilised): IgG1-5T4-085-FEAR
[4] = target: T1, human 5T4ECDHis (mature protein of SEQ …); assay: BLI cross-block; competitor (immobilised): IgG1-5T4-226-FEAR
[5] = target: T1, human 5T4ECDHis (mature protein of SEQ …); assay: BLI cross-block; competitor (immobilised): IgG1-5T4-127-FEAR
[6] = target: T1, human 5T4ECDHis (mature protein of SEQ …); assay: BLI cross-block; competitor (immobilised): IgG1-5T4-059-FEAR
[7] = target: T2, full length cynomolgus monkey 5T4 on transfected HEK-293 cells (cynomolgus monkey, UniProt Q4R8Y9 35-420); assay: flow cytometry, HEK-293 cells transfected with cynomolgus monkey 5T4, PE secondary [II)G]
T2 construct: Uniprot Q4R8Y9; residues 1-34 are the signal peptide; also called cynomolgus 5T4
T2 sequence: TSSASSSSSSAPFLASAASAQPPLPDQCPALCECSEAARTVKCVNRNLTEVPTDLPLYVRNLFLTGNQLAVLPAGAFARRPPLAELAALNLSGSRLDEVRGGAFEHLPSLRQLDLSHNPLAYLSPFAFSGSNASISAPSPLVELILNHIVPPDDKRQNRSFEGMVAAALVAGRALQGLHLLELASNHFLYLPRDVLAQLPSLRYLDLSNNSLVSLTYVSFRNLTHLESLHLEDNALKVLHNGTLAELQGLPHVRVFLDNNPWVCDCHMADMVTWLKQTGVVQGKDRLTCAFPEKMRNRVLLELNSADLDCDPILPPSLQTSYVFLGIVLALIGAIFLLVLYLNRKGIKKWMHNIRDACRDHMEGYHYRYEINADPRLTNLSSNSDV

[8] = target: T3, full length human 5T4 (SEQ ID NO: 1) on cells (human, UniProt Q13641 32-420); assay: flow cytometry, HEK-293 cells transfected with human 5T4, PE secondary [II)G]
T3 construct: Uniprot Q13641; residues 1-31 are the signal peptide; Used both for transfected HEK-293 cells and for 5T4-expressing human tumor cell lines
T3 sequence: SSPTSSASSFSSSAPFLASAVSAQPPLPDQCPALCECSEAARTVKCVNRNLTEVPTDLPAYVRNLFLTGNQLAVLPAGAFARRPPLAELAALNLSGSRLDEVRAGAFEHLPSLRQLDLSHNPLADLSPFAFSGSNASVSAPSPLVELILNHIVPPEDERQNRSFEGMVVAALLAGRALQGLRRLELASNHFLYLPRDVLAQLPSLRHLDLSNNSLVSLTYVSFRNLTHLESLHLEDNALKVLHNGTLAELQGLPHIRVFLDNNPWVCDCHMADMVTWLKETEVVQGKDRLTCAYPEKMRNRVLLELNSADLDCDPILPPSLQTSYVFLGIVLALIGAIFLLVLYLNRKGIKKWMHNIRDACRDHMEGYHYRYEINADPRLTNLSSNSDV

[9] = target: T1, human 5T4ECDHis (mature protein of SEQ …); assay: BLI cross-block; competitor (immobilised): IgG1-5T4-A3-F405L
[10] = target: T1, human 5T4ECDHis (mature protein of SEQ …); assay: BLI cross-block; competitor (immobilised): IgG1-5T4-076-FEAR
[11] = target: T4, recombinant cynomolgus monkey 5T4 protein (Cusabio; cat. no. CSB-MP024093MOV) (cynomolgus monkey, UniProt Q4R8Y9 35-355); assay: BLI, antibody on anti-human IgG Fc Capture biosensor, antigen in solution; 50 s dissociation window
T4 construct: extracellular domain; Bought protein; also called cynomolgus 5T4; cynomolgus monkey 5T4 extracellular domain
T4 sequence (looked up): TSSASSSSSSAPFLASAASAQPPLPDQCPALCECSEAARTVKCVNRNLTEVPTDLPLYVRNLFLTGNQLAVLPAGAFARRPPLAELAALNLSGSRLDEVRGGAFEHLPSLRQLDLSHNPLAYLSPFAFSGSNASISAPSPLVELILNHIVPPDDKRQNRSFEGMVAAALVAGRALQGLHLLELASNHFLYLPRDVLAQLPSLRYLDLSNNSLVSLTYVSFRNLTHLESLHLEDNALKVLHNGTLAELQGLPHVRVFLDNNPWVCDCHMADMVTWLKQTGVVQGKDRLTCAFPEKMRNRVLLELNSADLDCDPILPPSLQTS

[12] = target: T1, human 5T4ECDHis (mature protein of SEQ …); assay: BLI cross-block; competitor (immobilised): IgG1-5T4-H8-FEAR
[13] = target: T3, full length human 5T4 (SEQ ID NO: 1) on …; assay: flow cytometry, MDA-MB-231 cells, PE secondary [III)F]
[14] = target: T1, human 5T4ECDHis (mature protein of SEQ …); assay: BLI cross-block; competitor (immobilised): IgG1-5T4-207-FEAR
[15] = target: T1, human 5T4ECDHis (mature protein of SEQ …); assay: BLI, antibody on anti-human IgG Fc Capture biosensor, antigen in solution; 50 s dissociation window

B1: IgG1-5T4-127-FEAR (antibody, V domains shown)
VH: EVQLLESRGGLVQPGGSLRLSCAASGFTFSSYAMSWVRQAPGKGLEWVSTISGSGGSTYYADSVKGRFTISRDNSKKTLYLQMNSLRAEDTAVYYCAKDWGSGSYPAEYFQHWGQGTLVTVSS
VL: EIVLTQSPATLSLSPGERATLSCRASQSVSSYLAWYQQKPGQAPRLLIYDASNRATGIPARFSGSGSGTDFTLTISSLEPEDFAVYYCQQRSNWLMYTFGQGTKLEIK
notes: Monospecific, bivalent human IgG1 kappa with L234F, L235E, D265A, K409R (FEAR)
Question: B1 was tested. Which corrected association response [1] did it give?
Answer: -0.02 nm

Question: And the corrected association response [2]?
Answer: 0.87 nm

Question: And the corrected association response [3]?
Answer: 0 nm

Question: And the corrected association response [4]?
Answer: 1.51 nm

Question: And the corrected association response [5]?
Answer: -0.01 nm

Question: And the corrected association response [6]?
Answer: -0.1 nm

Question: And the “EC50 (read off the curve)” value [7]?
Answer: ~0.02 µg/mL

Question: What about the “EC50 (read off the curve)” value [8] of the same binder?
Answer: ~0.03 µg/mL

Question: What about the corrected association response [9] of the same binder?
Answer: 0.01 nm

Question: And the corrected association response [10]?
Answer: -0.02 nm

Question: And the Kd [11]?
Answer: 41 nM

Question: What about the koff [11] of the same binder?
Answer: 0.015 s⁻¹

Question: What about the kon [11] of the same binder?
Answer: 370000 M⁻¹ s⁻¹

Question: What about the corrected association response [12] of the same binder?
Answer: -0.01 nm

Question: And the “EC50 (read off the curve)” value [13]?
Answer: ~0.03 µg/mL

Question: What about the corrected association response [14] of the same binder?
Answer: 1.29 nm

Question: And the Kd [15]?
Answer: 27 nM

Question: What about the koff [15] of the same binder?
Answer: 0.016 s⁻¹

Question: What about the kon [15] of the same binder?
Answer: 580000 M⁻¹ s⁻¹
